# Measurements reported in publication PMC5834214 (PLoS Pathogens, 2018).
# Key:
# eGFP = eGFP (Aequorea victoria, UniProt P42212, F64L/H231L/S65T)
# LCMV NP (Strep-NP) = LCMV NP (Strep-NP) (Lymphocytic choriomeningitis virus, UniProt P09992)
# Chain of LCMV NP (Strep-NP) (P09992 whole entry): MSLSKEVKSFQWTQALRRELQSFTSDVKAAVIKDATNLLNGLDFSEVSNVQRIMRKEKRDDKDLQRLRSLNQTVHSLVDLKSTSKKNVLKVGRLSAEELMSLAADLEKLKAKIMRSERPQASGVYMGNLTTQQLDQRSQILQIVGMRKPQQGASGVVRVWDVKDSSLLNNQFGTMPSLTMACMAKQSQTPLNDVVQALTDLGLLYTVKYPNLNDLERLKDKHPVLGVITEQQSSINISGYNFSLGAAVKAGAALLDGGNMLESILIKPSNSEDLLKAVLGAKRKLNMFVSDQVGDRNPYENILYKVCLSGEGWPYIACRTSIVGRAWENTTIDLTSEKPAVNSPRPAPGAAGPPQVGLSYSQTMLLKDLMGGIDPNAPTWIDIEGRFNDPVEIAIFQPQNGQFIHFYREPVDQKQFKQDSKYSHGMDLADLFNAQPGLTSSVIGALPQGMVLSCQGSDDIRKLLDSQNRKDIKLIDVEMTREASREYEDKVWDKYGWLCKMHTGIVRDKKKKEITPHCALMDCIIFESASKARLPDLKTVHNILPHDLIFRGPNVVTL
molecule,measurement,setting,value
"HNRNPC (protein, UniProt P07910 2-306, looked up) Heterogeneous nuclear …: ASNVTNKTDPRSMNSRVFIGNLNTLVVKKSDVEAIFSKYGKIVGCSVHKGFAFVQYVNERNARAAVAGEDGRMIAGQVLDINLAAEPKVNRGKAGVKRSAAEMYGSVTEHPSPSPLLSSSFDLDYDFQRDYYDRMYSYPARVPPPPPIARAVVPSKRQRVSGNTSRRGKSGFNSKSGQRGSSKSGKLKGDDLQAIKKELTQIKQKVDSLLENLEKIEKEQSKQAVEMKNDKSEEEQSSSSVKKDETNVKMESEGGADDSAEEGDLLDDDDNEDRGDDQLELIKDDEKEAEEGEDDRDSANGEDDS",Spectral count eGFP Average,eGFP,0
same,Spectral count eGFP Exp. 1,eGFP,0
same,Spectral count eGFP Exp. 2,eGFP,0
same,Spectral count NP Average,LCMV NP (Strep-NP),4.5
same,Spectral count NP Exp. 1,LCMV NP (Strep-NP),4
same,Spectral count NP Exp. 2,LCMV NP (Strep-NP),5
